Experiment: yeast display, Sf9 membrane polyspecificity reagent, FACS + sequencing; frameworks hold sequencing errors
Outline: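 Galactose induction of a Saccharomyces cerevisiae BJ5465 synthetic nanobody display library ran 36–48 hours. The cells were then stained for 1 hour at 4 °C with 10% biotinylated, detergent-solubilized Sf9 membrane reagent, pulled down on streptavidin microbeads and FACS-sorted into low and high (top ~1%) gates on expression and reagent-binding fluorescence. Labels for polyreactivity follow the gate of origin.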

| Sequence | polyreactivity (PSR sort gate) |
| --- | --- |
| QVHLVESGGGLVQAGGSLRLSCAASGSTFRRYARAWYRQAPGKERELVAAITWRGGSTYYADSVKGRFTISRDNAKNTVYLQMNSLKPEDNAVYYCAADRYPYQYNYWGQGTLVTVSS | high polyreactivity |
| QVQLVESGGGLVQAGGSLRLSCAASGRTFWNYAMGWYRQAPGKERELVAAIRSSGGRTYYADSVKGRFTISRDNAKNTVYLQMNSLKPEDTAVYYCAAYGFIEGIGTYDYWGQGTQVTVSS | high polyreactivity |
| QVQLVESGGGLVQAGGSLRLSCAPSGRTFRTNTMGWYRQAPGKESELVAAINWRGGSTYYADSVKGRFTISRDNAKNTVYLQMNSLKPEDTAVYYCNAQQGRYKYSGRYDYWGQGTQVTVSS | low polyreactivity |
| QVQLVESGGGLVQAGASLRLSCAASGRNFHTYGMGWYRQAPGKESELVAAITWTGGSTYYADSVKGRFTISRDNAKNTVYLQMNSLKPEDTAVYYCAADYPRDIIGSMDYWGQGTQVSVSS | low polyreactivity |
| QVQLVESGGGLVQAGGSLRLSCAASGSIFEYYAMGWYRQAPGKERELVAAISTGGSTYYADSVKGRFTISRDNAKNTVYLQMNSLKPEDTAVYYCAAEDYHPGADTVGTGYDYWGQGTQVTVSS | low polyreactivity |
| QVQLVESGGGLVQAGGSLRLSCAASGNIFTRNAMGWYRQAPGKVRELVASITRGGSTYADSVKGLFTISRDNAKNTVYLQMNSLKPEDTAVYYCAASCYYSSHMDYWGQGTQVTVSS | high polyreactivity |
| QVQLVESGGGLVQAGGSLRLSCAASGLTFYSNAMGWYRQAPGKERELVASISNGGSTNYADSVKGRFTISRDNAKNTVYLQMNSLKPEDTAVYYCAAEYSLRHRRYTFFAEMDYWGQGTQVTVSS | low polyreactivity |
| QVQLVESGGGLVQAGGSLRLSCAASGNTFYRYAMGRYRQAPGKEREFVAGITSRGGSTSYADSVKGRFTISRDSAKNTVYLQMNILKPEDTAVYYCAARYSKVHFAYDYWGQGTQVTVSS | high polyreactivity |
| QVQLVESGGGLVQAGGSLRLSCAASGRTFVPYAMGWYRQAPGKERELVAAINSGGSTYYADSVKGRFTISRDNAKNTVYLQMNSLKPEDTAVYYCAAEYWNSRFSYAYGYWGQGTQVTVSS | high polyreactivity |
| QVQLVESGGGLVQAGGSLRLSCAASGFTFVRYAMGWYRQAPGKERELVAAISSGGSTNYADSVKGRFTISRDNAKNTVYLQMNSLKPEDTAVYYCNAVSRKVYPGPMDYWGQGTQVTVSS | high polyreactivity |
| QVQLQESGDGLVQADGSLRLSCAASGYISGYYYMGWYRQQPGKERELVAGIDAFGSSTNYADCVKGRFTISRDNGKNTVYLQMISPKPDDTAVYYCAAVYDDWDYHWYWGQGTQVTVSS | low polyreactivity |
| QVQLVESGGGLVQAGGSLRLSCAASGRIFQYYAMGWYRQAPGKEREFVAAITGRGTRTYADSVKGRFTISRDNAKYTVYLQMNSLKPEDTAVYYCAKPFHYGRSYRSKMDYWGQGTQVTVSS | high polyreactivity |
| QVQLVESGGGLVQAGGSLRLSCAASGIIFSTNAMGWYRQAPGKERELVAAISWDGSSTYYADSVKGRFTISRDNAKNTVYLQMNSLKPEDTAVYYCAADQSTVLDVGSWGQGTQVTVSS | low polyreactivity |
| QVLLVESGGGLVQAGGSLRVSCAASGRTFGGYGMGWYRQAPGKDRELVASISFSGGAGTYYADSVKGRFTISRDNATTPVYLQMNSLKPEDTAVYYCAKRYVTPTYRRYSWGQGTQETVSS | high polyreactivity |
| QVQLVESGGGLVQAGGSLRLSCAASGSIFLVNAMGWYRQAPGKERELVAAISWGGGSTYYADSVKGRFTISRDNAKNTVYVQMNSLKPEDTAVYYCAAESYYYIRYFDYSRWMGYWGQGTQVTVSS | low polyreactivity |
| QVQLVESGGGLVQAGGSLRLSCAASGRIFNQYGMGWYRQAPGKERELVASITLTDGSTYYADSVKGRFTISRDNAKNTVYLQMNSLKPEDTAVYYCAARISGGSTFRYQRMYYWGQGTQVTVSS | low polyreactivity |
| QVQLVESGGGLVQAGGSLRLSCAASGGTFNTYAMGWYRQAPGKERELVAAITSSGGSTFYADSVKGRFTISRDNAKNTVYLQMNSLKPEDTAVYYCAAKSYWTIVYRHPGYYYWGQGTQVTVSS | low polyreactivity |

From the nanobody polyreactivity screen of Harvey et al. (2022)
